{
  "source": "patent US20040235127",
  "target": "Schizochytrium PUFA PKS Orf A protein (carrying nine ACP domains)",
  "sequence (chain, as listed by the source)": "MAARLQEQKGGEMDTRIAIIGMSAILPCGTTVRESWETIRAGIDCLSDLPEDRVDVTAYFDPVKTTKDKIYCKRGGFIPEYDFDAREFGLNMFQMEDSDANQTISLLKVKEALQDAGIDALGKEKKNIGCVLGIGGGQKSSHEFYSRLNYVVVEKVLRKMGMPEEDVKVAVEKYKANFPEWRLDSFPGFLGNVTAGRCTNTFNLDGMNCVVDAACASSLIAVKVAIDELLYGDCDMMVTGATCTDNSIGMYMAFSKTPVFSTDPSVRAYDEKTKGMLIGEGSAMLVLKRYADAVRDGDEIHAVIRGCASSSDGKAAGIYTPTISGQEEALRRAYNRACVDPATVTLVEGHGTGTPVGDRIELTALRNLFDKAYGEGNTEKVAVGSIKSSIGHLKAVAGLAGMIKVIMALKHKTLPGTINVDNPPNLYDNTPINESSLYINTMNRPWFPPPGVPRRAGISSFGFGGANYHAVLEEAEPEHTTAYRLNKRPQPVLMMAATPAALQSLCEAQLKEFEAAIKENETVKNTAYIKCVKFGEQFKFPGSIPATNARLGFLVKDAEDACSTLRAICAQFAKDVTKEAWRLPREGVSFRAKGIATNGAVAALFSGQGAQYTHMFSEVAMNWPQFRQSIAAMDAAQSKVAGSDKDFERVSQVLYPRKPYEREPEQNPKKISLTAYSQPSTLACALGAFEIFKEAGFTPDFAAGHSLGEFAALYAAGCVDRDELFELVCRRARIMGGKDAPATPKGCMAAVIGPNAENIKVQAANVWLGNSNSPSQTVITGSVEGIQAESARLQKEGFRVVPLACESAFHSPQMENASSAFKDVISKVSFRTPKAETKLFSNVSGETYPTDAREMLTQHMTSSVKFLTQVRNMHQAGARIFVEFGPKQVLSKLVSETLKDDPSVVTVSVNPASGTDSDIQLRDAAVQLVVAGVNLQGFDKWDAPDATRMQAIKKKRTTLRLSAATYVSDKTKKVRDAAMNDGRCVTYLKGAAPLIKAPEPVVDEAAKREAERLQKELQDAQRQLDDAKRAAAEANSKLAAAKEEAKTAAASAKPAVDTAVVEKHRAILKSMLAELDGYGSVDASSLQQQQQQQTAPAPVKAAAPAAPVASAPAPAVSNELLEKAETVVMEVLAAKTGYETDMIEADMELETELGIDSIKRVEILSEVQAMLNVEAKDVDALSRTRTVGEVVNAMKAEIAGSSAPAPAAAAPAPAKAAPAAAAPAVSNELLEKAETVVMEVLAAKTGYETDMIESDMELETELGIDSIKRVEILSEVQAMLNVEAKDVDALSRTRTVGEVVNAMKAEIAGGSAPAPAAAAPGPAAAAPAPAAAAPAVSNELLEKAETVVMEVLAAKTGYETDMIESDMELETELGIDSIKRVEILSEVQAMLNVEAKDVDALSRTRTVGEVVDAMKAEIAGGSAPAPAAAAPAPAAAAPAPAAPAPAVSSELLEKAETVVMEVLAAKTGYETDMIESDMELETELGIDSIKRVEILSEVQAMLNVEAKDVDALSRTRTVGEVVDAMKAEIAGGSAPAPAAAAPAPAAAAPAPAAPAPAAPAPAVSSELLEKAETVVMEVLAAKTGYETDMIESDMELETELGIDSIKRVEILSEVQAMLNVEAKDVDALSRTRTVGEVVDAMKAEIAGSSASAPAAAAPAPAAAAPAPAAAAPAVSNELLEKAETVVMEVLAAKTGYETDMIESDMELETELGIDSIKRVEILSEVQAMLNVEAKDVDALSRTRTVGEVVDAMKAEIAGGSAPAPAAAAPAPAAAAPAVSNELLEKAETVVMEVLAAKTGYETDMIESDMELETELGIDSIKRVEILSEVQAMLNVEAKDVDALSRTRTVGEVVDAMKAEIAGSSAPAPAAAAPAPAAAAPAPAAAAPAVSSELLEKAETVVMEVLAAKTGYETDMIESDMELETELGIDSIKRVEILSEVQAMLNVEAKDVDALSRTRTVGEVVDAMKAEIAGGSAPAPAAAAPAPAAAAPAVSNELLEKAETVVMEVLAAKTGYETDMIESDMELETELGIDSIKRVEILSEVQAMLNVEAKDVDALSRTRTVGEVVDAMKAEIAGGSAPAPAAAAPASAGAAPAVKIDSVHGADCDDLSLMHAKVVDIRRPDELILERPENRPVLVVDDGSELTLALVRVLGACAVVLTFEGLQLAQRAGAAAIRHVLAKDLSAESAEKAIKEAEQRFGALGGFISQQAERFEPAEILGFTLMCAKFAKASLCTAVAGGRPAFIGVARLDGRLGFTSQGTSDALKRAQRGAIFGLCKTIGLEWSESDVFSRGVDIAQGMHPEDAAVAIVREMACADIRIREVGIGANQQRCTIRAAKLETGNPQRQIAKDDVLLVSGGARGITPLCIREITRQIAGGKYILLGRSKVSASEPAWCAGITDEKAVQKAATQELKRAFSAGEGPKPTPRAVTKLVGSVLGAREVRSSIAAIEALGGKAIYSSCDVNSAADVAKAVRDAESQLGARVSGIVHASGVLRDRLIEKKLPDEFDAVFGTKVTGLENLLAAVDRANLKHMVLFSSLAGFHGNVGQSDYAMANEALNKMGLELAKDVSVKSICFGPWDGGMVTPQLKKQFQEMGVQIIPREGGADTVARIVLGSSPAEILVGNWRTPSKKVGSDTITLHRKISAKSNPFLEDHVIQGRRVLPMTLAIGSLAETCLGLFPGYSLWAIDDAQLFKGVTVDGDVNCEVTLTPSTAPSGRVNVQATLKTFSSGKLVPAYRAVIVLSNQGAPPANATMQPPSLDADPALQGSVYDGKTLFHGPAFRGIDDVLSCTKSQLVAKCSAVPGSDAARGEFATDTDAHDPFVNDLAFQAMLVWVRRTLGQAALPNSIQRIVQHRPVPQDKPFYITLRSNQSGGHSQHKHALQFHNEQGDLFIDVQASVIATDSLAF",
  "data": [
    {"protein": "sfp PPTase (phosphopantetheine transferase derived from Bacillus subtilis) (protein) MKIYGIYMDRPLSQEENERFMSFISPEKREKCRRFYHKEDAHRTLLGDVLVRSVISRQYQLDKSDIRFSTQEYGKPCIPDLPDAHFNISHSGRWVICAFDSQPIGIDIEKTKPISLEIAKRFFSKTEYSDLLAKDKDEQTDYFYHLWSMKESFIKQEGKGLSLPLDSFSVRLHQDGQVSIELPDSHSPCYIKTYEVDPGYKMAVCAAHPDFPEDITMVSYEELL", "values": [
      {"measurement": "DHA production in E. coli co-expressing the PPTase with Orf A, B*, C (FAME analysis by gas-liquid chromatography)", "value": "Co-expression of the sfp construct in cells expressing the Orf A, B*, C proteins, under certain conditions, resulted in DHA production."}
    ]}
  ]
}
